We go through six molecules from US20240317847A1 (Bayer, published 2024).

In general, Kd refers to the equilibrium constant for the complex coming apart. Higher therefore signals weaker binding. As a reminder, the IC50 is the point on the concentration scale where inhibition reaches its midpoint.

Positions count from the first letter of the chain named. Bounds are passed on as bounds.

Experiment [1] deals with T1, human IL-11 (human, UniProt P20809 22-199).
T1 construct: Invigate recombinant protein; biotinylated when immobilized in the Di-complex ELISA; also called hIL11; hIL-11
T1 sequence: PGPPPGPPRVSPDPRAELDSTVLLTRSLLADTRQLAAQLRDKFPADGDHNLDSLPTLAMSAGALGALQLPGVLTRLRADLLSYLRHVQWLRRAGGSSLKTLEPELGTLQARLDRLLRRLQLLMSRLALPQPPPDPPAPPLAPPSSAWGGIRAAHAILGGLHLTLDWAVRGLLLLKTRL
The experiment in a line: SPR (Biacore), 37 C, antibody captured via anti-Fc, IL-11 as analyte. Here is the method:
(§1) To assess the binding kinetics and affinity of anti-IL-11 bispecific antibodies as well as their species cross-reactivity profile, binding assays were conducted using surface plasmon resonance (SPR). […] Antibodies were captured either via anti-human Fc IgGs (“Human antibody capture kit”, Order No. BR100839, Cytiva) or via anti-mouse Fc IgGs (“Mouse antibody capture kit, Order No. BR100383, Cytiva) covalently amine coupled to a Series S CM5 sensor chip (Cytiva) depending on the isotype. The amine coupling was carried out according to the manufacturer's instructions using 1-ethyl-3-(3-dimethylaminopropyl) carbodiimide hydrochloride (EDC), N-hydroxysuccinimide (NHS) and ethanolamine HCl, pH 8.5 (“Amine Coupling Kit” BR-1000-50, Cytiva.). Human, mouse, cynomolgus or rat IL-11 was used as analyte at several dilutions within the concentration range from 0.05-200 nM. For binding assays with only one concentration 200 nM IL-11 was used. The sensor surface was regenerated with glycine pH 1.7 after each antigen injection. Obtained sensorgrams were double referenced (subtraction of reference flow cell signal and buffer injection) and were fitted to a 1:1 Langmuir binding model to derive kinetic data using the Biacore T200 Evaluation software or the Biacore Insight software.
(§2) If no value is reported, there was either no binding or very low binding and multiphasic binding behavior.
(In SPR one partner is held on a chip, and binding of the other changes the refractive index at the surface.)

For experiment [2], the target named is T2, cynomolgus IL-11 (cynomolgus, UniProt P20808 22-199).
T2 construct: Invigate recombinant protein; also called cIL11; Macaca IL-11
T2 sequence: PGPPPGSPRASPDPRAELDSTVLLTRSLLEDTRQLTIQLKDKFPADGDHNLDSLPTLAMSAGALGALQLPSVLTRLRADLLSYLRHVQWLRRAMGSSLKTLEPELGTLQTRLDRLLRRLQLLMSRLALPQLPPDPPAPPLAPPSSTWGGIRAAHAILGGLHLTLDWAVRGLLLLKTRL
Described as above. Here is the method:
as §1, §2

The target of experiment [3] is T3, rat IL-11 (rat, UniProt Q99MF5 22-199).
T3 construct: Invigate recombinant protein; also called rIL11
T3 sequence: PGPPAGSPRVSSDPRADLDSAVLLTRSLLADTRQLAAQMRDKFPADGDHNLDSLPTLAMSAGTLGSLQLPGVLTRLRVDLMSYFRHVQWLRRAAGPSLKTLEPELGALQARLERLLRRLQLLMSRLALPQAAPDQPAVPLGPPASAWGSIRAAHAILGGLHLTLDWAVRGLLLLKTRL
Described as above. Here is the method: as §1, §2

For experiment [4], the target named is T4, murine IL-11 (mouse, UniProt P47873 22-199).
T4 construct: Invigate recombinant protein; biotinylated when immobilized in the Di-complex ELISA; also called mIL11; mIL-11
T4 sequence: T3 sequence with N50S, F84L, A94G, A137V, V138I
The experiment in a line: Tri-complex ELISA, mIL-11 + mIL-11Ra-Fc + mgp130-Fc, inhibition of complex formation.

In experiment [5] the target is T5, human IL-11 (Invigate, e.g., lot #C121021-19) (human, UniProt P20809 22-199).
T5 construct: Bought protein; also called hIL-11; hIL11
T5 sequence: T1 sequence
The experiment in a line: SPR, Biacore T200, 25 C; antibody captured via anti-mouse Fc, IL-11 as analyte, 1:1 Langmuir fit. Here is the method:
Antibodies were captured via anti-mouse Fc IgGs (“Mouse antibody capture kit, Order No. BR100383, Cytiva) covalently amine coupled to a Series S CM5 sensor chip (Cytiva). The amine coupling was carried out according to the manufacturer's instructions using 1-ethyl-3-(3-dimethylaminopropyl) carbodiimide hydrochloride (EDC), N-hydroxysuccinimide (NHS) and ethanolamine HCl, pH 8.5 (“Amine Coupling Kit” BR-1000-50, Cytiva.). Human IL-11 (Invigate, e.g., lot #C121021-19), and murine IL-11 (Invigate, e.g., lot #C210819-09) were used as analytes. […] Based on that experiment an IL-11 concentration range was chosen to optimally determine kinetics and affinity of anti-IL-11 antibodies in multicycle kinetics mode. The sensor surface was regenerated with glycine pH 1.7 after each antigen injection. Obtained sensorgrams were double referenced (subtraction of reference flow cell signal and buffer injection) and were fitted to a 1:1 Langmuir binding model to derive kinetic data using the Biacore T200 Evaluation software or the Biacore Insight software.

B1: TPP-29697 (bispecific antibody, IgG1)
chain 1: QVQLVESGGGVVQPGRSLRLSCAASGFTFSHYDMHWVRQAPGKGLEWVAVISYHGSVKFYADSVKGRFTISRDNSKNTLYLQMNSLRAEDTAVYYCARTPGFHFDYWGQGTLVTVSSGGGGSGGGGSGGGGSQSVLTQPPSASGTPGQRVTISCSGSSSNIGSNYVSWYQQLPGTAPKLLIYYDDLRPSGVPDRFSGSKSGTSASLAISGLRSEDEADYYCSAWDDSLSGVVFGGGTKLTVLGGGGSGGGGSGGGGSGVECPPCPAPPVAGPSVFLFPPKPKDTLMISRTPEVTCVVVGVSHEDPEVKFNWYVDGVEVHNAKTKPREEQYNSTYRVVSVLTVLHQDWLNGKEYKCKVSNKQLPSPIEKTISKAKGQPREPQVYTLPPCRDELTKNQVSLWCLVKGFYPSDIAVEWESNGQPENNYKTTPPVLDSDGSFFLYSKLTVDKSRWQQGNVFSCSVMHEALHNHYTQKSLSLSPGK
chain 2: EVQLLESGGGLVQPGGSLRLSCAASGFTFSSYGMHWVRQAPGKGLEWVAVISYDGSYKYYADSVKGRFTISRDNSKNTLYLQMNSLRAEDTAVYYCAAGVPDYWGQGTLVTVSSGGGGSGGGGSGGGGSQSVLTQPPSASGTPGQRVTISCSGSSSNIGSDYDVHWYQQLPGTAPKLLIYSNEERPSGVPDRFSGSKSGTSASLAISGLRSEDEADYYCSAWDSSLSGPVFGGGTKLTVLGGGGSGGGGSGGGGSGVECPPCPAPPVAGPSVFLFPPKPKDTLMISRTPEVTCVVVGVSHEDPEVKFNWYVDGVEVHNAKTKPREEQYNSTYRVVSVLTVLHQDWLNGKEYKCKVSNKQLPSPIEKTISKAKGQPREPQVCTLPPSRDELTKNQVSLSCAVKGFYPSDIAVEWESNGQPENNYKTTPPVLDSDGSFFLVSKLTVDKSRWQQGNVFSCSVMHEALHNHYTQKSLSLSPGK
notes: scFv-kih-hIgG1 with Fc-silencing mutations; bispecific comprising CDRs of TPP-29528 and TPP-29519
Regarding B1, the Kd in experiment [1], in experiment [2] and in experiment [3] was less than 0.001 nM each time.

B2: TPP-18068 (antibody, mouse IgG1)
heavy: EVQLLESGGGLVQPGGSLRLSCAASGFTFSSYGMHWVRQAPGKGLEWVSVISYDGSYKYYADSVKGRFTISRDNSKNTLYLQMNSLRAEDTAVYYCAAGVPDYWGQGTLVTVSSAKTTPPSVYPLAPGSAAQTNSMVTLGCLVKGYFPEPVTVTWNSGSLSSGVHTFPAVLQSDLYTLSSSVTVPSSTWPSETVTCNVAHPASSTKVDKKIVPRDCGCKPCICTVPEVSSVFIFPPKPKDVLTITLTPKVTCVVVDISKDDPEVQFSWFVDDVEVHTAQTQPREEQFNSTFRSVSELPIMHQDWLNGKEFKCRVNSAAFPAPIEKTISKTKGRPKAPQVYTIPPPKEQMAKDKVSLTCMITDFFPEDITVEWQWNGQPAENYKNTQPIMDTDGSYFVYSKLNVQKSNWEAGNTFTCSVLHEGLHNHHTEKSLSHSPGK
light: QSVLTQPPSASGTPGQRVTISCTGSSSNIGAGYDVHWYQQLPGTAPKLLIYSNNERPSGVPDRFSGSKSGTSASLAISGLRSEDEADYYCAAWDDSLNGPVFGGGTKLTVLGQPKSSPSVTLFPPSSEELETNKATLVCTITDFYPGVVTVDWKVDGTPVTQGMETTQPSKQSNNKYMASSYLTLTARAWERHSSYSCQVTHEGHTVEKSLSRADCS
notes: mIgG1, Lambda
B2: the Kd in experiment [2] stood at 5 nM; in experiment [3] it was 0.58 nM. Also, in experiment [4], the “Efficacy (%)” value stood at 84.9%. In experiment [4], the IC50 was 3.9 nM.

B3: TPP-29603 (bispecific antibody, IgG1)
chain 1: QVQLVESGGGVVQPGRSLRLSCAASGFTFSHYDMHWVRQAPGKGLEWVAVISYHGSVKFYADSVKGRFTISRDNSKNTLYLQMNSLRAEDTAVYYCARTPGFHFDYWGQGTLVTVSSGGGGSGGGGSGGGGSQSVLTQPPSASGTPGQRVTISCSGSSSNIGSNYVSWYQQLPGTAPKLLIYYDDLRPSGVPDRFSGSKSGTSASLAISGLRSEDEADYYCSAWDDSLSGVVFGGGTKLTVLGGGGSGGGGSGGGGSGVECPPCPAPPVAGPSVFIFPPKPKDVLTITLTPKVTCVVVDISKDDPEVQFSWFVDDVEVHTAQTQPREEQFNSTFRSVSELPIMHQDWLNGKEFKCRVNSAAFPAPIEKTISKTKGRPKAPQVYTIPPCKEQMAKDKVSLWCMITDFFPEDITVEWQWNGQPAENYKNTQPIMDTDGSYFVYSKLNVQKSNWEAGNTFTCSVLHEGLHNHHTEKSLSHSPGK
chain 2: EVQLLESGGGLVQPGGSLRLSCAASGFTFSSYGMHWVRQAPGKGLEWVAVISYDGSYKYYADSVKGRFTISRDNSKNTLYLQMNSLRAEDTAVYYCAAGVPDYWGQGTLVTVSSGGGGSGGGGSGGGGSQSVLTQPPSASGTPGQRVTISCSGSSSNIGSDYDVHWYQQLPGTAPKLLIYSNEERPSGVPDRFSGSKSGTSASLAISGLRSEDEADYYCSAWDSSLSGPVFGGGTKLTVLGGGGSGGGGSGGGGSGVECPPCPAPPVAGPSVFIFPPKPKDVLTITLTPKVTCVVVDISKDDPEVQFSWFVDDVEVHTAQTQPREEQFNSTFRSVSELPIMHQDWLNGKEFKCRVNSAAFPAPIEKTISKTKGRPKAPQVCTIPPPKEQMAKDKVSLSCAITDFFPEDITVEWQWNGQPAENYKNTQPIMDTDGSYFVVSKLNVQKSNWEAGNTFTCSVLHEGLHNHHTEKSLSHSPGK
notes: scFv-kih-mIgG1; bispecific comprising CDRs of TPP-29528 and TPP-29519
With B3, the Kd was determined as 0.0019 nM in experiment [1], 0.0022 nM in experiment [2] and 0.0034 nM in experiment [3].

B4: TPP-18087 (antibody, mouse IgG1, V domains shown)
VH: EVQLLESGGGLVQPGGSLRLSCAASGFTFSHYDMNWLRQAPGKGLEWVGVISYDGSNKFYADFVKGRFTISRDNSKNTLYLQMNSLRAEDTAVYYCARTPGSHFDYWGQGTLVTVSS
VL: QSVLTQPPSASGTPGQRVTISCSGSSSNIGNNAVNWYQQLPGTAPKLLIYYDDLLPSGVPDRFSGSKSGTSASLAISGLRSEDEADYYCSAWDDSLNGVVFGGGTKLTVLG
notes: mIgG1, Lambda
B4 displayed a Kd in experiment [5] of 53 nM.

B5: TPP-19528 (antibody, mouse IgG1, V domains shown)
VH: EVQLLESGGGLVQPGGSLRLSCAASGFTFSIYAMSWVRQAPGKGLEWVSSISDTGDRTYYADSVKGRFTISRDNSKNTLYLQMNSLRAEDTAVYYCARSNWGSLDYWGQGTLVTVSS
VL: B4 VL with N31S, A33Y, N35Y, S90A, N97S, V99R
notes: mIgG1, Lambda
As to B5, binding in experiment [5] was put at a Kd of 11 nM.

B6: TPP-18087 (antibody, mouse IgG1, V domains shown)
VH: B4 VH
VL: B4 VL
notes: mIgG1, Lambda
Turning to B6, the IC50 in experiment [4] was found to be 33 nM.
